Values quoted from earlier work, collected in PMC4117600.
Like-named read-outs stand apart in the source and are kept apart here.

What was measured:
CCR4 (Homo sapiens) [1] = biological target: CCR4 (Homo sapiens) (UniProt P51679)
CCR4 (Homo sapiens) [2] = biological target: CCR4 (Homo sapiens) (UniProt P51679); remark: listed apart in the source

Chain of CCR4 (Homo sapiens) (P51679 whole entry): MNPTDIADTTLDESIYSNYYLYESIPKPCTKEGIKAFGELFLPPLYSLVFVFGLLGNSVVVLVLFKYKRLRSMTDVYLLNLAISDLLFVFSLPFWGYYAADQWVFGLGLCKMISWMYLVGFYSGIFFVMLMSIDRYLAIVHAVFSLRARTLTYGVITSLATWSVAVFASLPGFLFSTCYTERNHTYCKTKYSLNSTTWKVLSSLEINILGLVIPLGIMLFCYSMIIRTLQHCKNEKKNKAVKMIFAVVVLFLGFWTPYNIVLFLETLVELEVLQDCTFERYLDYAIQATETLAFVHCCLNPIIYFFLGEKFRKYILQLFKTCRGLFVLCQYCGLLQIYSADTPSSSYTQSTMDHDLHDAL
Chain of CCL22 (O00626 25-93): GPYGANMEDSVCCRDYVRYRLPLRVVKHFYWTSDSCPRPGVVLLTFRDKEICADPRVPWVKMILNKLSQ
Chain of CCL17 (Q92583 24-94): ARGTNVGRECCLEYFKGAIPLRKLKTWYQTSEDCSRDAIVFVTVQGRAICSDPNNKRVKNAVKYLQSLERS

Substance: CCL22 (from UniProt O00626)
- Kd (CCR4 (Homo sapiens) [1]): 0.18 nM

Substance: CCL17 (from UniProt Q92583)
- Kd (CCR4 (Homo sapiens) [2]): 2.1 nM
